Reference: patent US20150132305A1 (ADHERON THERAPEUTICS, published 2015)
Changes are numbered by the printed parent chain. Names may count otherwise. No end group written: not given here.

B1: SDP051 humanized anti-Cad-11 EC1 antibody (Vκ1/VH5) (antibody, IgG4, V domains shown)
VH: EVQLVQSGAEVKKPGASVKVSCKASGYSFTGYFMNWVRQAPGQGLEWIGRINPYTGDTFYNQKFKGRVTITVDKSTSTAYMELSSLRSEDTAVYYCGRLGSRYWYFDVWGQGTTVTVSS
VL: DVLMTQTPLSSPVTLGQPASISCRSSQSIIHSNGNTYLEWYLQKPGQSPQLLIYKVSNRFSGVPDRFTGSGSGTDFTLKISRVEAEDVGVYYCFQGSHVPWTFGQGTKLEIK
notes: humanized IgG4 (S241P), kappa
B2: SDP061 humanized anti-Cad-11 EC1 antibody (Vκ2/VH1) (antibody, IgG4, V domains shown)
VH: EVQLVQSGPELKKPGASVKISCKASGYSFTGYFMNWVKQAHGQGLEWIGRINPYTGDTFYNQKFKGRATLTVDKSSSTAYMELVSLSSEDSAVYYCGRLGSRYWYFDVWGQGTTVTVSS
VL: B1 VL with T68S
notes: humanized IgG4 (S241P), kappa
B3: SDP071 humanized anti-Cad-11 EC1 antibody (Vκ2/VH2) (antibody, IgG4, V domains shown)
VH: B1 VH with V20I, R38K, V68A, I70L
VL: B1 VL with T68S
notes: humanized IgG4 (S241P), kappa
B4: SDP111 humanized anti-Cad-11 EC1 antibody (Vκ3/VH1) (antibody, IgG4, V domains shown)
VH: B2 VH
VL: B1 VL with L3V, T68S
notes: humanized IgG4 (S241P), kappa
B5: SDP121 humanized anti-Cad-11 EC1 antibody (Vκ3/VH2) (antibody, IgG4, V domains shown)
VH: B1 VH with V20I, R38K, V68A, I70L
VL: B1 VL with L3V, T68S
notes: humanized IgG4 (S241P), kappa
B6: SDP131 humanized anti-Cad-11 EC1 antibody (Vκ3/VH3) (antibody, IgG4, V domains shown)
VH: B1 VH with V20I, V68A, I70L
VL: B1 VL with L3V, T68S
notes: humanized IgG4 (S241P), kappa
B7: SDP141 humanized anti-Cad-11 EC1 antibody (Vκ3/VH4) (antibody, IgG4, V domains shown)
VH: B1 VH with V68A
VL: B1 VL with L3V, T68S
notes: humanized IgG4 (S241P), kappa
B8: SDP151 humanized anti-Cad-11 EC1 antibody (Vκ3/VH5) (antibody, IgG4, V domains shown)
VH: B1 VH
VL: B1 VL with L3V, T68S
notes: humanized IgG4 (S241P), kappa
B9: Cad-7 37-mer peptide linked to BSA (peptide, UniProt Q9ULB5 48-84, looked up)
peptide: SWVWNQFFVLEEYMGSDPLYVGKLHSDVDKGDGSIKY
modifications: also: linked to BSA
notes: also called Cad-7 antigen; Cad-7 peptide
B10: Cad-9 37-mer peptide linked to BSA (peptide, UniProt Q9ULB4 54-90, looked up)
peptide: GWMWNQFFLLEEYTGTDTQYVGKLHTDQDKGDGNLKY
modifications: also: linked to BSA
notes: also called Cad-9 antigen; Cad-9 peptide

What was measured:
[1] = target: T1, recombinant Cad-11 EC1 human IgG1 fusion protein (R&D Systems Cat. No. 1790-CA-050) (human, UniProt P55287 54-617, limits assumed); assay: competition ELISA against biotinylated SYN0012/H1M1 (competitor) on coated fusion protein; text says values are normalised to the IC50 of SYN0012
T1 construct: bought; also called recombinant human Cad-11 EC1; recombinant human Cad-11 fusion protein; not shown: human IgG1 part
T1 sequence: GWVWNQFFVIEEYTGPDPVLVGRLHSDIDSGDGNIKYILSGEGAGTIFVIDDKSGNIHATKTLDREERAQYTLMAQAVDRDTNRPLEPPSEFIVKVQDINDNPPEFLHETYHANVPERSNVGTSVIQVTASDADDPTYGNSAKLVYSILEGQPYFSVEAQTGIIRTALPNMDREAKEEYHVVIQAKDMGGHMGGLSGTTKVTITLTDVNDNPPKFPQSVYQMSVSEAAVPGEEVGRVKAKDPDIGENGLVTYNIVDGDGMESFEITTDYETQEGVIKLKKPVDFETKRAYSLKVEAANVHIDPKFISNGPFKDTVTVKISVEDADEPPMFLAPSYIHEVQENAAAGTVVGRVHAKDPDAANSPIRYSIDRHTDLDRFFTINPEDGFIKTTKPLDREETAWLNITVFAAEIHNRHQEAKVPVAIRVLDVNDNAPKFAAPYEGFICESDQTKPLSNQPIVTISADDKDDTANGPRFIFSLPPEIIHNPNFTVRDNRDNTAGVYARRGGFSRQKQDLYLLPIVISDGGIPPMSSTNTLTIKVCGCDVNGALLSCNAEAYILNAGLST
Experimental: (§1) The binding of the purified humanized composite variant antibodies (SDP011 to SDP151) to a recombinant Cad-11 EC1 human IgG1 fusion protein was assessed in a competition binding ELISA. A dilution series from 5 μg/ml to 0.0022 μg/ml of the humanized or control (SYN0012/H1M1) antibodies was premixed with a constant concentration of biotinylated murine anti-Cad-11 antibody, SYN0012/H1M1 (0.1 μg/ml, final concentration), before incubating for 1 hour at room temperature on a NUNC-IIMMUNO™ MAXISORP™ 96 well flat bottom microtitre plate (Fisher Cat. No. DIS-971-030J) pre-coated with 0.25 μg/ml recombinant human Cad-11 EC1 (R&D Systems Cat. No. 1790-CA-050) diluted in PBS. The binding of the biotinylated mAb was detected with streptavidin-HRP (Sigma Cat. No. 55512) and tetramethylbenzidine (TMB) substrate (Invitrogen Cat. No. 00-2023).
(§2) All of the humanized anti-Cad-11 antibodies efficiently competed with SYN0012 for binding to the Cad-11 fusion protein (FIGS. 38A to C). […] The curves were used to calculate IC50 values for each antibody and these were normalized to the IC50 of SYN0012, which was included on each ELISA plate so that comparisons between plates could be made (Table 3). The expression levels of each cell line and the calculated isoelectric point (pI) of each antibody are also shown (Table 3).
The relative IC50 was calculated by dividing the value for the test antibody by that of SYN0012. Antibody expression levels given are for static cultures in T flasks. PI are calculated.

[2] = target: T1, recombinant Cad-11 EC1 human IgG1 …; assay: competition ELISA on coated recombinant human Cad-11 EC1 fusion protein against biotinylated SYN0012 (0.1 µg/ml)
Experimental: as §1, §2

[3] = target: T2, recombinant his-tagged human Cad-11 (R&D Systems) (human, UniProt P55287 54-617); assay: SPR, rhCad-11 immobilized, SDP051 as analyte, 2-state reaction model; kd1
T2 construct: bought; also called rhCad-11; recombinant human Cad-11; not shown: his tag
T2 sequence: T1 sequence
Experimental: (§3) To determine the affinity of SDP051 for recombinant his-tagged human Cad-11, rhCad-11 (R&D Systems) was immobilized to the chip at a single concentration, high resolution kinetics were determined for SDP051, and a 2-state reaction binding model was successfully fitted to the kinetic data.
(§4) Kinetic data were obtained at a flow rate of 40 μL/min to minimize any potential mass transfer effects. An analyte concentration series ranging from 12.5 nM to 0.195 nM was prepared by serial dilution. Two repeats of the blank (no mAb) and the 3.125 nM (first and last cycle) concentration of the analyte were programmed into the kinetic runs in order to check the stability of both the surface and analyte over the kinetic cycles. The SDP051 was injected over the Fcs for 360 seconds, long enough to observe the curvature in association phase.

[4] = target: T2, recombinant his-tagged human Cad-11 …; assay: SPR, rhCad-11 immobilized, SDP051 as analyte, 2-state reaction model
Experimental: as §3, §4

[5] = target: B9; assay: ELISA, BSA-coupled 37-mer cadherin peptide coated at 500 ng/ml, A450
Experimental: (§5) REACTI-BIND™ plates (ThermoScientific) were coated with 500 ng/ml of the BSA coupled cadherin 37-mer peptide (NE peptide) corresponding to Cadherins-7, -8, -9, -11, -18, -20, and -24 in 0.05% TWEEN® detergent (EMD, product code 9480) in PBS (pH 7.2) (Gibco(Invitrogen), #20012) at 100 μl volume/well for overnight at 4° C. The peptide containing solution was removed from the well and the plate blocked with a 2% bovine serum albumin (BSA) in PBS, 200 μl volume/well, for 2 h at 22° C. The plate was then washed twice with 200 μl/well of PBS-TWEEN® detergent 0.05% at 22° C. and blotted dry. A dilution series from 5 μg/ml to 8 ng/ml in a volume of 100 μl/well of each the humanized anti-Cad-11 antibodies were incubated in the petide coated wells and incubated at 22° C. for 1 hr. Antibody solution was removed from the wells and the plate washed twice with 200 μl/well of 0.05% TWEEN® detergent-PBS at 22° C. and blotted dry. The goat-anti mouse IgG (Pierce #31432) was added to each well to plate at a 1:1000 dilution, 100 μl/well and incubate at 22° C. for 30 min. The secondary antibody solution was removed and the plate washed twice with 200 μl/well of 0.05% TWEEN® detergent-PBS at 22° C. and blotted dry. The reaction was developed by adding 100 μl/well tetramethylbenzidine (TMB) reagent IgG (Pierce #34022, 1 step Turbo TMB-ELISA) to plate and developed at 22° C. for 5 min.

[6] = target: B10; assay: as above
Experimental: as §5

[7] = target: T2, recombinant his-tagged human Cad-11 …; assay: SPR, rhCad-11 immobilized, SDP051 as analyte, 2-state reaction model; ka1
Experimental: as §3, §4

[8] = target: T1, recombinant Cad-11 EC1 human IgG1 …; assay: competition ELISA: antibody dilution series premixed with 0.1 µg/ml biotinylated SYN0012/H1M1, plate coated with recombinant human Cad-11 EC1 fusion protein, streptavidin-HRP, OD450
Experimental: as §1, §2

[9] = target: B1; assay: flow cytometry blocking assay: peptide titrated with SDP 051 at 0.5 ug/ml on Cad-11 expressing 431D cells; blocked: binding of SDP051 to cell-surface Cad-11; MFI
Experimental: Cells were the stained on ice for 45 minutes with increasing concentration of either the 37-mer Cad-11 peptide or Cad-7, Cad-8, Cad-9, Cad-18, Cad-20, or Cad-24 peptides with […] SDP051. After staining the cells were washed twice with Hanks balanced salt solution (HBSS) containing 1% fetal bovine solution (FBS), resuspended and then stained with a 100 μl of goat anti-mouse IgG-PE (100× dilution) on ice for 30′ protected from light. After staining the cells with the secondary agent, cells were washed twice with HBSS with 1% FBS, resuspended and fixed in 200 μl of 2% formaldehyde in HBSS with 1% FBS and then analyzed with a BD FACSCALIBUR™ machine.

B1
IC50 [1]: 0.99 µg/mL | IC50 (read off the curve) [2]: ~0.2 µg/mL | koff [3]: 0.0043 s⁻¹ | Kd [4]: 379 pM | binding result [5]: no binding (tested: 5000 ng/ml) | binding result [6]: no binding (tested: 5000 ng/ml) | kon [7]: 613000 M⁻¹ s⁻¹

B2
IC50 [1]: 0.47 µg/mL | binding result [6]: no binding (tested: 5000 ng/ml)

B3
IC50 [1]: 0.33 µg/mL | binding result [6]: no binding (tested: 5000 ng/ml)

B4
IC50 [1]: 0.68 µg/mL | IC50 (read off the curve) [8]: ~0.2 µg/mL

B5
IC50 [1]: 0.52 µg/mL | IC50 (read off the curve) [8]: ~0.2 µg/mL

B6
IC50 [1]: 0.55 µg/mL | IC50 (read off the curve) [8]: ~0.2 µg/mL

B7
IC50 [1]: 0.61 µg/mL | IC50 (read off the curve) [8]: ~0.2 µg/mL

B8
IC50 [1]: 0.72 µg/mL | IC50 (read off the curve) [8]: ~0.2 µg/mL

B9
binding result [9]: no binding (tested: 3000 ng/ml)

B10
binding result [9]: no binding (tested: about 80000 ng/ml)
